Data as given in EP3440111B1 (Fondazione Luigi Maria Monti, dated 2023).

Legend:
[1] = molecular target: T1, sVEGFR-1 (soluble VEGFR-1) (Homo sapiens (Human), UniProt P17948 27-656); test: ELISA on plates coated with a soluble form of VEGFR-1
T1 construct: Bought from RELIATech; also called soluble form of VEGFR-1

[2] = molecular target: T2, chimeric protein rhVEGFR-1/Fc (human, UniProt P17948 27-758); test: Western blotting
T2 construct: extracellular domain;domain: Fc region; Bought from R&D Systems; also called sVEGFR-1/Fc; not shown: Fc region of human immunoglobulins
T2 sequence (P17948 27-758, stated change not applied): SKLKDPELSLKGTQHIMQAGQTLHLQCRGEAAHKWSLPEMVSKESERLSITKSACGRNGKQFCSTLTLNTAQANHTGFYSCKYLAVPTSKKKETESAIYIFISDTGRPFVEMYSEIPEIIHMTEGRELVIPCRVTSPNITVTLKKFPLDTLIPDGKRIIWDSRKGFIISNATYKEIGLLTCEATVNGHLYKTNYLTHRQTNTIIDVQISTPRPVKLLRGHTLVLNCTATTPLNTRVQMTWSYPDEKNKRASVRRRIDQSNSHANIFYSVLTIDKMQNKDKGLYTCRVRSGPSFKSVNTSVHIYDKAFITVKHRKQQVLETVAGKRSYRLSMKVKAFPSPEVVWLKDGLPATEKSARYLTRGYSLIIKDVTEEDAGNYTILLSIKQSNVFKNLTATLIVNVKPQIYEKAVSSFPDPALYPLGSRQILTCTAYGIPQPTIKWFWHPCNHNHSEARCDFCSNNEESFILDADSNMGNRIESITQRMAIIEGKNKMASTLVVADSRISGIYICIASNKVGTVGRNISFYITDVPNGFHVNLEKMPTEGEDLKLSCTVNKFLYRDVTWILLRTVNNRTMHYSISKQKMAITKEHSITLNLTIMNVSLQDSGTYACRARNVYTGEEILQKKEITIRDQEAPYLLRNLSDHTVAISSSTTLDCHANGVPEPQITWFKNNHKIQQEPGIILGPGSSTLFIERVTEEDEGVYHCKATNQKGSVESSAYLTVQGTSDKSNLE

T1 sequence (P17948 other isoform, or with tags, fused parts or gaps limits assumed): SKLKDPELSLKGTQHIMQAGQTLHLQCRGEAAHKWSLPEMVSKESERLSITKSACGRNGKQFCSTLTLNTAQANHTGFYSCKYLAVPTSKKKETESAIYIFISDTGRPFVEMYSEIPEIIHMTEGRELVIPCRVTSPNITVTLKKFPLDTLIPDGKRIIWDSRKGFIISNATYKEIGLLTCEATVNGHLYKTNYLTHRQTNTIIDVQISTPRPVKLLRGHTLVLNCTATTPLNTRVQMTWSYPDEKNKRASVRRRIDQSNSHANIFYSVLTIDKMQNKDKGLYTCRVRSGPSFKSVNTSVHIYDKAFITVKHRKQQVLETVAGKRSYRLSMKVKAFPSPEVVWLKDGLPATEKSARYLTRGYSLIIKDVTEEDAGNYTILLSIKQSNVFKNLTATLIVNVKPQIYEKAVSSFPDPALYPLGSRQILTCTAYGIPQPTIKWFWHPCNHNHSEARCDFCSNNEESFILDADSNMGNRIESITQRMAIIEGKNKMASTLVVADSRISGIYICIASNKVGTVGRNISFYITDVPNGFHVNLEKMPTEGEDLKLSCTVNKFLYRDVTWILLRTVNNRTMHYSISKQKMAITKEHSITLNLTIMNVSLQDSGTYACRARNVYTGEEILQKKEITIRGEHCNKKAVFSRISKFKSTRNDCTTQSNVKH

binding result [1]: binds | binding result [2]: binds
B1: monoclonal antibody D16F7 (antibody, V domains shown)
VH: QVQLQQPGSELVRPGASVKLSCKASGYIFTNYWMHWVKQRPGQGLEWIGEIYPRNGNTNYDEKFKGKATLTIDTSSSTAYMQLSSLTSEDSAVYYCATYLGDYWGQGTTLTVSS
VL: DVLMTQTPLSLPVSLGDQASISCRSSQSIVHSNGNTYLEWFLQKPGQSPKLLIYKVSNRFSGIPDRFSGSGSGTDFTLKISRVEAEDLGVYFCFQGSHVPYTFGGGTKLEIK
notes: Mouse IgG1 from a hybridoma (BALB/c mice immunized with peptide A4 as a MAP); also called D16F7 mAb; mAbD16F7
